The text below walks through data of article PMC12431671, “Receptor transporter protein 4 (RTP4)-mediated repression of hepatitis C virus replication in mouse cells” (PLOS Pathogens, 2025).

The test addresses T1, HCV NS5A protein (hepatitis C virus J6/JFH1-Jc1, UniProt Q99IB8 1977-2442).
T1 construct: NS5A, cut product of the polyprotein of hepatitis C virus J6/JFH1 (Jc1) chimeric genome; Untagged viral protein, detected with the mouse anti-NS5A antibody 9E10 (a tool); NS5A is a stretch of it; source: made by HCV J6/JFH1-Jc1 infection (MOI of 1) of Huh7-Lunet cells, in fixed cells
T1 sequence: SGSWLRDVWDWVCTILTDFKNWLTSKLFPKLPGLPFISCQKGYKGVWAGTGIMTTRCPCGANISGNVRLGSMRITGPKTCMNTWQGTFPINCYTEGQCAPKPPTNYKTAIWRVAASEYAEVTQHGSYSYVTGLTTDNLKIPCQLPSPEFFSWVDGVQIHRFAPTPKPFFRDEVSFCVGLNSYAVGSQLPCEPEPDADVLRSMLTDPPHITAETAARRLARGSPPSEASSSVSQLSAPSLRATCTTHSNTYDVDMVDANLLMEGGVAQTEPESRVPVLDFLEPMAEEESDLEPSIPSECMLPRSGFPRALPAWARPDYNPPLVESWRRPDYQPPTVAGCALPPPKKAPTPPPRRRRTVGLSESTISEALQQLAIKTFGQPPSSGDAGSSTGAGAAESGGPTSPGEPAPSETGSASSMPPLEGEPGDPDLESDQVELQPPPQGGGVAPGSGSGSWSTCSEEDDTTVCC
Briefly: proximity ligation; in situ PLA (Duolink In Situ Detection Reagents Green) in Huh7-Lunet cells infected with HCV J6/JFH1-Jc1 at MOI 1, transduced with FLAG-mmRTP4 or FLAG-hsRTP4 lentivirus, fixed in methanol 48 h post-transduction; Anti-Rabbit MINUS and Anti-Mouse PLUS probes; foci counted in 10 images per sample. As to conditions: partners not purified.

B1: FLAG-tagged murine receptor transporter protein 4 (FLAG-mmRTP4) (natural protein)
chain: MLFPDDFSTWEQTFQELMQEEKPGAKWSLHLDKNIVPDGAALGWRQHQQTVLGRFQCSRCCRSWTSAQVMILCHMYPDTLKSQGQARMRIFGQKCQKCFGCQFETPKFSTEIIKRILNNLVNYILQRYYGHRKIALTSNASLGEKVTLDGPHDTRNCEACSLNSHGRCALAHKVKPPRSPSPLPKSSSPSKSCPPPPQTRNTDFGNKTFQDFGNRTFQGCREPPQREIEPPLFLFLSIAAFALFSLFTR
notes: Receptor transporter protein 4 (RTP4), mouse; also called mouse RTP4; murine RTP4; source: Huh7-Lunet cells, lentivirally transduced (pLVX), HCV-infected, in fixed cells; not shown: FLAG, N-terminal, kept
Take B1: the “frequency of PLA foci relative to FLAG-hsRTP4 with NS5A” value was 2 fold.
